Target: T1, GsSir2 (Sir2-APAZ protein of the SPARSA system from Geobacter sulfurreducens) (Geobacter sulfurreducens, UniProt Q74DF6 1-586)
T1 construct: GsSir2 of Geobacter sulfurreducens, NP_952413.1; That the His tag sits on GsSir2, the first gene of Sir2-RBS-pAgo, is surmised; source: E. coli BL21(DE3), coexpressed with pAgo, purified (Ni-NTA, Superdex 200 SEC)
T1 sequence: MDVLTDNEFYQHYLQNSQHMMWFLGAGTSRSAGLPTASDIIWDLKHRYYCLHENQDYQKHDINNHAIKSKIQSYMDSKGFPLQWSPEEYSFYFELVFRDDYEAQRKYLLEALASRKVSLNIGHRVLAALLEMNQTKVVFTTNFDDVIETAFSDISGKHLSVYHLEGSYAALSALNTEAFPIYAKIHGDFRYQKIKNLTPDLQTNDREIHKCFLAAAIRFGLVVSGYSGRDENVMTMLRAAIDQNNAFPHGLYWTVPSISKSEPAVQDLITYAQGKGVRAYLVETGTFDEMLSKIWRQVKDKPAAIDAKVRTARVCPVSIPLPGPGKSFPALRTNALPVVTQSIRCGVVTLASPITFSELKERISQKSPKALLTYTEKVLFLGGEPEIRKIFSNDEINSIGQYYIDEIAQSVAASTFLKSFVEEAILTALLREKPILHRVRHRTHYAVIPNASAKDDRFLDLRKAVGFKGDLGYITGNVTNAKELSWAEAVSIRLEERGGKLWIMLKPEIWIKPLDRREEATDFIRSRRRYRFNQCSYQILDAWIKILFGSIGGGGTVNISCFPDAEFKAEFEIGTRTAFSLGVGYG
Assay: cryo-EM structure; SPARSA heterodimer (GsSir2 + pAgo) coexpressed and co-purified, endogenous NAD+ bound, no nucleic acids; 2 mg/mL; 3.6 Å
Details: both partners purified

B1: pAgo (short prokaryotic Argonaute of the SPARSA system from Geobacter sulfurreducens) (natural protein)
chain: not shown
notes: short pAgo of Geobacter sulfurreducens, NP_952414.1; MID domain residues 1-218, PIWI domain residues 219-473; no tag of its own is described; also called short pAgo; source: E. coli BL21(DE3), coexpressed with GsSir2, purified (Ni-NTA, Superdex 200 SEC)
stoichiometry N: 1
